Laboratory results reported in patent US20260226176A1 (THERANOVIR, published 2026).
Where two headings read alike, the source gives them in different places.

T1: NRP-1 peptide (Npep)
T1 sequence (peptide): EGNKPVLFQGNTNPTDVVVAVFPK

T2: NRP-1 peptide (Npep)
T2 construct: also called synthetic peptide Npep
T2 peptide: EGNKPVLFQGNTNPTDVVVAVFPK

B1: variant 8 a-NRP1_LEP n° 1 (antibody, V domains shown)
VH: EVQLVESGGGLVQPGGSLRLSCAASGFTFSSYSMHWVRQAPGKGLEWVSYISSGSSTIHYADSVKGRFTISRDNAKNSLYLQMNSLRAEDTAVYYCARRHYGSSRYWYFDVWGQGTTVTVSS
VL: EIVLTQSPATLSLSPGERATLSCRASQSVKSYLAWYQQKPGQAPRLLIYYASSRATGIPARFSGSGSGTDFTLTISSLEPEDFAVYYCQQYSESPYTFGQGTKLEIK
notes: humanized variant of 21B10; isotype control hIgG4; also called Var8; variant no 8
B2: variant 6 a-NRP1_LEP n° 1 (antibody, V domains shown)
VH: B1 VH
VL: DIQMTQSPSTLSASVGDRVTITCRASQSIKSYLAWYQQKPGKAPKLLIYYASSLASGVPSRFSGSGSGTEFTLTISSLQPDDFATYYCQQYGESSYTFGQGTKLEIK
notes: humanized variant of 21B10; isotype control hIgG4; also called Var6; variant no 6
B3: a-NRP1_SEM (antibody, from another filing, V domains shown)
VH: EVQLVESGGGLVQPGGSLRLSCAASGFSFSSEPISWVRQAPGKGLEWVSSITGKNGYTYYADSVKGRFTISADTSKNTAYLQMNSLRAEDTAVYYCARWGKKVYGMDVWGQGTLVTVSS
VL: DIQMTQSPSSLSASVGDRVTITCRASQSISSYLAWYQQKPGKAPKLLIYGASSRASGVPSRFSGSGSGTDFTLTISSLQPEDFATYYCQQYMSVPITFGQGTKVEIKR

Columns and labels:
NRP-1 peptide (Npep) [1] = biological target: T1, NRP-1 peptide (Npep); test: ELISA, antibody 10 µg/ml, 2 µg immobilised Npep
[2] = biological target: recombinant human NRP-1 (3870-N1-025, Bio-Techne) (human) (UniProt O14786); test: ELISA, antibody 10 µg/ml, 1 µg immobilised human NRP-1
[3] = biological target: recombinant murine NRP-1 (5994-N1-050, Bio-Techne) (murine) (UniProt P97333); test: ELISA, antibody 10 µg/ml, 1 µg immobilised murine NRP-1
[4] = biological target: T3, native human NRP-1 on the cell surface (human, UniProt O14786 22-923); test: flow cytometry, MDA-MB-231 cells, 10 ug/ml, +heparinase
T3 construct: whole, on cells; endogenous protein; isoform and glycosaminoglycan state on the cells not defined; also called native NRP-1 on MDA-MB-231 cells; native form of NRP-1 protein on the CTCs cell surface

[5] = biological target: T3, native human NRP-1 on the cell surface; test: flow cytometry, MDA-MB-231 cells, 10 ug/ml, -heparinase
[6] = biological target: T3, native human NRP-1 on the cell surface; test: flow cytometry, MDA-MB-231 cells, 40 ug/ml, +chondroitinase
[7] = biological target: T3, native human NRP-1 on the cell surface; test: flow cytometry, MDA-MB-231 cells, 40 ug/ml, -chondroitinase
[8] = biological target: T3, native human NRP-1 on the cell surface; test: flow cytometry, CTC cells mix, 10 ug/ml
[9] = biological target: T3, native human NRP-1 on the cell surface; test: flow cytometry, CTC cells mix, 25 ug/ml
[10] = biological target: T3, native human NRP-1 on the cell surface; test: flow cytometry, CTC cells mix, 50 ug/ml
NRP-1 peptide (Npep) [11] = biological target: T2, NRP-1 peptide (Npep); test: ELISA, antibody 10 µg/ml, 2 µg immobilised Npep
[12] = biological target: T4, recombinant human NRP-1 (3870-N1-025, Bio-Techne) (human, UniProt O14786 22-856); test: ELISA, antibody 10 µg/ml, 1 µg immobilised human NRP-1
T4 construct: extracellular domain; bought protein; also called human recombinant NRP-1

[13] = biological target: T5, recombinant murine NRP-1 (5994-N1-050, Bio-Techne) (murine, UniProt P97333 22-856); test: ELISA, antibody 10 µg/ml, 1 µg immobilised murine NRP-1
T5 construct: extracellular domain; bought protein; also called mouse recombinant NRP-1

[14] = biological target: T3, native human NRP-1 on the cell surface; test: flow cytometry, MDA-MB-231 cells, 10 ug/ml, +heparinase; remark: listed apart in the source
[15] = biological target: T3, native human NRP-1 on the cell surface; test: flow cytometry, MDA-MB-231 cells, 10 ug/ml, -heparinase; remark: listed apart in the source
[16] = biological target: T3, native human NRP-1 on the cell surface; test: flow cytometry, MDA-MB-231 cells, 40 ug/ml, +chondroitinase; remark: listed apart in the source
Procedure: (§1) Chondroitinase (C2905, Sigma) was reconstituted in a 0.01% BSA aqueous solution. The MDA-MB-231 cells were treated with chondroitinase (1 U/ml) for 2 hours at 37° C. The cells were detached using cell dissociation solution non-enzymatic (C5914, Sigma). 300,000 cells per condition were washed with 2% FBS in PBS and then incubated with different antibodies of interest or their respective isotype controls at 40 μg/ml for 30 min at 4° C. After wash, an Alexa 488-conjugated anti-human immunoglobulin antibody (20022-1, Biotium) was added at 10 μg/ml for 30 min at 4° C. After a final wash, fluorescence, size and granularity of cells were measured by the LSR Fortessa cytometer (BD Biosciences).

[17] = biological target: T3, native human NRP-1 on the cell surface; test: flow cytometry, MDA-MB-231 cells, 40 ug/ml, -chondroitinase; remark: listed apart in the source
Procedure: as §1

[18] = biological target: T3, native human NRP-1 on the cell surface; test: flow cytometry, MDA-MB-231 cells, 10 ug/ml, with against without heparinase
[19] = biological target: T3, native human NRP-1 on the cell surface; test: flow cytometry, MDA-MB-231 cells, 40 ug/ml, with against without chondroitinase
Procedure: as §1

[20] = biological target: native human NRP-1 on the cell surface (human) (UniProt O14786); test: flow cytometry, MDA-MB-231 cells, 10 ug/ml, +heparinase
[21] = biological target: native human NRP-1 on the cell surface (human) (UniProt O14786); test: flow cytometry, MDA-MB-231 cells, 10 ug/ml, -heparinase
[22] = biological target: native human NRP-1 on the cell surface (human) (UniProt O14786); test: flow cytometry, MDA-MB-231 cells, 40 ug/ml, +chondroitinase
[23] = biological target: native human NRP-1 on the cell surface (human) (UniProt O14786); test: flow cytometry, MDA-MB-231 cells, 40 ug/ml, -chondroitinase
[24] = biological target: native human NRP-1 on the cell surface (human) (UniProt O14786); test: flow cytometry, MDA-MB-231 cells, 10 ug/ml, with against without heparinase
[25] = biological target: native human NRP-1 on the cell surface (human) (UniProt O14786); test: flow cytometry, MDA-MB-231 cells, 40 ug/ml, with against without chondroitinase

Sequence of recombinant murine NRP-1 (5994-N1-050, Bio-Techne) (murine) (P97333 22-856): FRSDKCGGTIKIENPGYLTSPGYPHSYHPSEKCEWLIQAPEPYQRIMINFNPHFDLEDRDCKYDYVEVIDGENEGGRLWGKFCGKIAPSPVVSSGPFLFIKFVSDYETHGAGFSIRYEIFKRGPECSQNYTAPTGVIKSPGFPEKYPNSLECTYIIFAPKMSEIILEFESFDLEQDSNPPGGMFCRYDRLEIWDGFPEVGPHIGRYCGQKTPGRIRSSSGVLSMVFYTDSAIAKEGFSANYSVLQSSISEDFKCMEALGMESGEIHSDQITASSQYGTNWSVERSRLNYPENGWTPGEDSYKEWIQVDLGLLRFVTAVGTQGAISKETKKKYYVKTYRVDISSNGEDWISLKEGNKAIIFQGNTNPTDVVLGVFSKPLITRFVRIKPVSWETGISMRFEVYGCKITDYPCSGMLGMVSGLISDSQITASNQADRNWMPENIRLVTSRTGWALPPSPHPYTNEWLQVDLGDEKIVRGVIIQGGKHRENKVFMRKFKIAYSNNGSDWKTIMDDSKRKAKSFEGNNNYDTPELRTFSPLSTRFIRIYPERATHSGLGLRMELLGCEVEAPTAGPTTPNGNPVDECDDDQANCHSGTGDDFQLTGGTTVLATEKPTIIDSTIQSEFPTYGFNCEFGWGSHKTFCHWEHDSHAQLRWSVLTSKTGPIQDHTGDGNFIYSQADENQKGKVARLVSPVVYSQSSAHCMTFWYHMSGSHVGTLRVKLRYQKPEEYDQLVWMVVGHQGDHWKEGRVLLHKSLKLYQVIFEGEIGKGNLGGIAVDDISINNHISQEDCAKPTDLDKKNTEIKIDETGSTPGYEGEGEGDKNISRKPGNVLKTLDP
T5 sequence (P97333 22-856): as above

Molecule	Absorbance (NRP-1 peptide (Npep) [1])	Absorbance [2]	Absorbance [3]	percentage of binding [4] [%]	percentage of binding [5] [%]	percentage of binding [6] [%]	percentage of binding [7] [%]	percent of bound cells [8] [%]	percent of bound cells [9] [%]	percent of bound cells [10] [%]	Absorbance (NRP-1 peptide (Npep) [11])	Absorbance [12]	Absorbance [13]	percentage of binding [14] [%]	percentage of binding [15] [%]	percentage of binding [16] [%]	percentage of binding [17] [%]	delta (% of control) [18] [%]	delta (% of control) [19] [%]	further results
hIgG1 isotype control (antibody)	0.05	0.073	0.084	0.14	0.17	0.063	0.1	–	–	–	–	–	–	–	–	–	–	–	–	–
hIgG4 isotype control (antibody)	0.055	0.073	0.064	0.24	0.2	–	0.47	2.04	3.3	4.04	–	–	–	–	–	–	–	–	–	–
mIgG2b isotype control (antibody)	–	–	–	0.28	0.086	0.66	0.45	3.65	6.66	14.4	–	–	–	–	–	–	–	–	–	–
B1	–	–	–	–	–	–	–	–	–	–	0.475	0.59	0.412	9.88	13.3	61.5	75.6	-3.42	-14.1	–
B2	–	–	–	–	–	–	–	–	–	–	0.684	0.799	0.72	11.5	13.1	69.1	85.3	-1.6	-16.2	–
B3	0.063	0.407	0.431	–	–	–	–	–	–	–	–	–	–	–	–	–	–	–	–	percentage of binding [20]: 97.7%; percentage of binding [21]: 96.6%; percentage of binding [22]: 99.9%; percentage of binding [23]: 100%; delta (% of control) [24]: 1.1%; delta (% of control) [25]: -0.1%
